Assays:
[1] = target: HA-tagged bovine pancreatic RNase N113S expressed in CHO cells (bovine) (UniProt P61823)
[2] = target: HA-tagged bovine pancreatic RNase expressed in CHO cells (bovine) (UniProt P61823)

Substance	efficiency of secretion after a 60-min chase (pulse-chase, CHO cells) [1] [%]	efficiency of secretion after a 60-min chase (pulse-chase, CHO cells) [2] [%]
HA-tagged bovine pancreatic RNase N113S expressed in CHO cells (from UniProt P61823 27-150) (enzyme)	72	–
HA-tagged bovine pancreatic RNase expressed in CHO cells (from UniProt P61823 27-150) (enzyme)	–	45

— PMC3037694
